# From the supplement of paper PMC9732359
# ± gives the uncertainty stated by the source.
# Assay: protein stability index of a GFP-peptide fusion (yeast GPS) (PSI 1-4); higher = more stable; sorted into four equal gates, so the index is relative within each strain
# Procedure, shortened: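 Plasmids isolated from each sorting gate were PCR-amplified and Illumina-sequenced, and barcodes assigned the reads to strains. The gates, four of equal size, were set by GFP/Cherry fluorescence ratio on mid-log cultures in leucine-free medium. These cultures were yeast carrying a pooled library of tiled 17-residue yeast protein peptides fused downstream of GFP on a plasmid that also expresses Cherry. The protein stability index is the sum of every gate's read frequency times its gate number.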
Sequence,protein stability index (doa10∆),protein stability index (pdr5∆),protein stability index (san1∆),protein stability index (ubr1∆)
PLRLRLYDNFVSKFYDK [RPN9],3.17 ± 0.068,3.18 ± 0.068,3.17 ± 0.064,2.96 ± 0.079
TLVNKSTGLKSASDALK [RPS1A],2.94 ± 0.11,3.1 ± 0.11,3.42 ± 0.092,3.23 ± 0.074
VVDFLKRNGSTLEQKVN [FAS1],2.83 ± 0.057,3.03 ± 0.049,2.87 ± 0.048,3.07 ± 0.04
SKRRITEELSITGEKLD [SMC1],2.17 ± 0.08,2.22 ± 0.072,2.18 ± 0.1,2.01 ± 0.078
KTAPIQESFVPNSERSG [YOR098C/NUP1],2.27 ± 0.24,2.42 ± 0.11,1.4 ± 0.26,3.03 ± 0.081
DINVESLTQSVCDLALR [PUP2],1.52 ± 0.1,1.91 ± 0.067,1.67 ± 0.18,1.93 ± 0.037
IDDRDYVGNKRLELAGQ [RET1],3.22 ± 0.15,3.47 ± 0.11,3.05 ± 0.12,3.58 ± 0.13
IGSTSKRPIESGTSSDP [YIL149C/MLP2],3.23 ± 0.087,3.22 ± 0.1,3.17 ± 0.11,3.36 ± 0.064
IIYPRSQTTLVQFGLNE [ARP9],3.04 ± 0.19,1.33 ± 0.082,2.03 ± 0.12,1.26 ± 0.17
AVLKKIQSKAVEQGYED [YCG1],3.05 ± 0.12,3.38 ± 0.092,3.08 ± 0.072,3.07 ± 0.084
NLMGNRNNHNSNTSTSK [SNF12],3 ± 0.073,3.17 ± 0.096,2.92 ± 0.12,3.07 ± 0.054
PEETPLEELAETFQDTF [FAS2],3.11 ± 0.056,2.96 ± 0.062,3.12 ± 0.048,3.32 ± 0.059
DVKLVLASNFDNFDYFN [MED1],3.17 ± 0.065,3.19 ± 0.068,3.2 ± 0.07,3.15 ± 0.056
DEQDDDNVNSTTGSIFE [BRN1],2.88 ± 0.16,2.92 ± 0.13,2.7 ± 0.15,2.85 ± 0.066
KIGPLGLSPKKVGEDIA [RPL12A],3.3 ± 0.16,3.2 ± 0.18,3.27 ± 0.2,3.38 ± 0.24
VRIDLGTIDKLQLELTI [RPO31],1.99 ± 0.049,2.21 ± 0.052,2.5 ± 0.053,2.91 ± 0.042
SQVKDSVTETESISQTP [SRP68],2.92 ± 0.12,3.02 ± 0.11,3.22 ± 0.21,2.93 ± 0.084
PEGRLYQVEYAFKATNQ [SCL1],2.65 ± 0.086,2.88 ± 0.067,1.78 ± 0.1,2.32 ± 0.062
DASPAPSNESCSPWSLQ [SRB5],2.72 ± 0.071,2.43 ± 0.052,2.86 ± 0.046,2.33 ± 0.033
TNSVRLFEVNPSQTLFS [SRP21],2.65 ± 0.09,2.51 ± 0.078,2.2 ± 0.073,2.56 ± 0.047

Sequence,protein stability index (doa10∆),protein stability index (pdr5∆),protein stability index (san1∆),protein stability index (ubr1∆)
TPSTSSNGEFIPHIFYS [CSE2],2.36 ± 0.054,2.44 ± 0.043,2.62 ± 0.044,2.82 ± 0.048
VQKILPLSNEVFEISEN [SWI1],2.13 ± 0.043,1.85 ± 0.039,1.73 ± 0.06,2.17 ± 0.035
RYSRQFINNVLSNPSNQ [GRR1],2.28 ± 0.08,2.45 ± 0.082,1.91 ± 0.1,2.07 ± 0.076
EKIKMKLKQGQKLFVQV [GAL11],2.85 ± 0.13,3.2 ± 0.09,3.28 ± 0.074,3.23 ± 0.14
SGYVRSRGESDDSLNRL [RPS21A],2.94 ± 0.14,1.85 ± 0.074,2.17 ± 0.084,2.88 ± 0.059
MAPLSLNFKDDKKYKGL [REC8],2.66 ± 0.089,2.61 ± 0.14,2.47 ± 0.065,2.47 ± 0.075
IAATGLNQINGLNNDFL [GRR1],3.34 ± 0.17,3.26 ± 0.14,3 ± 0.1,3.19 ± 0.12
EQFYTKDIIDPKLTSIF [RPN2],2.32 ± 0.11,2.92 ± 0.11,2.36 ± 0.11,2.47 ± 0.09
KLQSWDKVSSCFPQYVN [NNF1],1.42 ± 0.099,1.94 ± 0.09,1.45 ± 0.15,2.68 ± 0.1
VIFNDNVTETYSVYLIH [SIR3],2.35 ± 0.12,2.42 ± 0.09,2.72 ± 0.072,2.28 ± 0.12
TKWGLINYQVDSKLLPK [SWI3],2.8 ± 0.11,2.41 ± 0.12,1.92 ± 0.15,2.55 ± 0.077
KFPDMGSLWVEFCDEPS [RPB5],2.75 ± 0.044,2.89 ± 0.06,2.9 ± 0.066,2.96 ± 0.045
WNVEKFKKDFEVNISSL [RPC40],2.03 ± 0.11,2.98 ± 0.12,2.6 ± 0.084,2.59 ± 0.082
PTHYKIPAWFLNRQNDI [RPS18A],2.12 ± 0.065,2.19 ± 0.062,1.8 ± 0.071,1.75 ± 0.046
EIESIDKLPQFVDENTF [RPN1],3.08 ± 0.13,3.4 ± 0.22,3.09 ± 0.085,3.32 ± 0.1
KELMLQSKKLIEEKLSS [YIL149C/MLP2],2.95 ± 0.12,2.96 ± 0.11,2.72 ± 0.11,3.05 ± 0.07
SGHFSTDSRTGQSTILV [CDC53],2.83 ± 0.047,2.8 ± 0.052,3.05 ± 0.038,3.11 ± 0.042
NVASLVRVQFQFTGFLL [GRR1],1.85 ± 0.072,1.73 ± 0.075,1.48 ± 0.1,1.55 ± 0.058
SNKILVYESEMEQCKQR [YIL149C/MLP2],2.72 ± 0.17,2.95 ± 0.17,2.18 ± 0.28,3.16 ± 0.26
TRELAEEGYSGVEVRVT [RPS3],2.4 ± 0.059,3 ± 0.073,2.67 ± 0.053,2.86 ± 0.04
